Laboratory results: US20240076403A1
One block for each substance: values may come before it.

Legend:
[1] = target: human HER2 protein on cells (SK-BR-3 endogenous; CHO-K1-human HER2 recombinant) (human) (UniProt P04626); test: FACS on SK-BR-3 cells
[2] = target: human HER2-His protein (Acro, Cat. No. HE2-H5225) (human) (UniProt P04626); test: ELISA, 100 nM
[3] = target: monkey HER2-His protein (Sino Biological, Cat. No. 90295-C08H) (monkey); test: ELISA, 100 nM
[4] = target: human HER2-His protein (Acro, Cat. No. HE2-H5225) (human) (UniProt P04626); test: ELISA, 0.01 nM
[5] = target: monkey HER2-His protein (Sino Biological, Cat. No. 90295-C08H) (monkey); test: ELISA, 0.01 nM
[6] = target: human HER2-His protein (Acro, Cat. No. HE2-H5225) (human) (UniProt P04626); test: ELISA, 1 nM
[7] = target: human HER2-His protein (Acro, Cat. No. HE2-H5225) (human) (UniProt P04626); test: ELISA, 0.1 nM
[8] = target: monkey HER2-His protein (Sino Biological, Cat. No. 90295-C08H) (monkey); test: ELISA, 0.1 nM
[9] = target: human HER2-His protein (Acro, Cat. No. HE2-H5225) (human) (UniProt P04626); test: ELISA, 10 nM
[10] = target: monkey HER2-His protein (Sino Biological, Cat. No. 90295-C08H) (monkey); test: ELISA, 10 nM
[11] = target: human HER2-His protein (Acro, Cat. No. HE2-H5225) (human) (UniProt P04626); test: ELISA, 1 nM; remark: listed apart in the source
[12] = target: human HER2 protein on cells (SK-BR-3 endogenous; CHO-K1-human HER2 recombinant) (human) (UniProt P04626); test: FACS on CHO-K1-human HER2 cells
[13] = target: human HER2-His protein (Acro, Cat. No. HE2-H5225) (human) (UniProt P04626); test: ELISA, 0.001 nM
[14] = target: monkey HER2-His protein (Sino Biological, Cat. No. 90295-C08H) (monkey); test: ELISA, 0.001 nM
[15] = target: human HER2-His protein (Acro, Cat. No. HE2-H5225) (human) (UniProt P04626); test: ELISA, 10 nM; remark: listed apart in the source
[16] = target: human HER2-His protein (Acro, Cat. No. HE2-H5225) (human) (UniProt P04626); test: ELISA, 0.00001 nM
[17] = target: monkey HER2-His protein (Sino Biological, Cat. No. 90295-C08H) (monkey); test: ELISA, 0.00001 nM
[18] = target: human HER2-His protein (Acro, Cat. No. HE2-H5225) (human) (UniProt P04626); test: ELISA, 0.001 nM; remark: listed apart in the source
[19] = target: human HER2-His protein (Acro, Cat. No. HE2-H5225) (human) (UniProt P04626); test: ELISA, 0.0001 nM
[20] = target: monkey HER2-His protein (Sino Biological, Cat. No. 90295-C08H) (monkey); test: ELISA, 0.0001 nM
[21] = target: monkey HER2-His protein (monkey); test: ELISA, coated monkey HER2-His
[22] = target: monkey HER2 on HEK293T-monkey-HER2 cells (monkey); test: FACS on HEK293T-monkey-HER2 cells

Max MFI [1]: 73
OD450 [2]: 0.06
OD450 [3]: 0.12
OD450 [4]: 0.06
OD450 [5]: 0.08
OD450 [6]: 0.05
OD450 [7]: 0.05
OD450 [8]: 0.05
OD450 [9]: 0.06
OD450 [10]: 0.07
OD450 [11]: 0.06
Max MFI [12]: 71
OD450 [13]: 0.05
OD450 [14]: 0.05
OD450 [15]: 0.05
OD450 [16]: 0.05
OD450 [17]: 0.05
OD450 [18]: 0.06
OD450 [19]: 0.06
OD450 [20]: 0.06
Substance: hIgG1 (IgG subtype control) (antibody)

OD450 nm at 0.0001 nM antibody [21]: 0.06 OD450 nm
OD450 nm at 0.001 nM antibody [21]: 0.09 OD450 nm
OD450 nm at 0.01 nM antibody [21]: 0.05 OD450 nm
OD450 nm at 0.1 nM antibody [21]: 0.06 OD450 nm
OD450 nm at 1 nM antibody [21]: 0.05 OD450 nm
OD450 nm at 10 nM antibody [21]: 0.05 OD450 nm
OD450 nm at 100 nM antibody [21]: 0.09 OD450 nm
Max MFI [22]: 127 MFI
Substance: hIgG1 (antibody)
